Source: paper PMC4861070 (ACS chemical biology, 2016)
Square brackets hold non-standard residues; d marks the D form. Ends that are not written are not given here. pY = N[C@@H](Cc1ccc(OP(=O)(O)O)cc1)C(=O)O; Lys(Me3) = C[N+](C)(C)CCCC[C@H](N)C(=O)O; pS = N[C@@H](COP(=O)(O)O)C(=O)O

T1: BRPF1 PWWP domain (aa 1064–1214) (UniProt P55201 1064-1214)
T1 sequence (looked up): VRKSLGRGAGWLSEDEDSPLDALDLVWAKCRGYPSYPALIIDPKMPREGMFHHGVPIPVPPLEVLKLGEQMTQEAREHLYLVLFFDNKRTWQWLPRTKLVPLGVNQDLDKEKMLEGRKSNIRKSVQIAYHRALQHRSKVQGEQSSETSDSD


Legend:
[1] = molecular target: H3K9me3S10ph peptide (Homo sapiens) (UniProt P68431); details: cited from earlier work
[2] = molecular target: H3K9me3 peptide (Homo sapiens) (UniProt P68431); details: cited from earlier work
[3] = molecular target: Tudor domain of human PHF1 (aa 14–87) (human, UniProt O43189 14-87); test: NMR titration
[4] = molecular target: T1, BRPF1 PWWP domain (aa 1064–1214); test: NMR titration

Tudor domain of human PHF1 (aa 14–87), sequence (O43189 14-87): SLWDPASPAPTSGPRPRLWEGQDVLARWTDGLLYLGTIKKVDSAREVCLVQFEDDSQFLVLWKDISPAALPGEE

Row | Molecule | Kd [3] | Kd [4] | Kd [1] | Kd [2]
1 | ATRX ADD (from UniProt P46100) | – | – | 0.19 µM | 0.11 µM
2 | KSAPSTGGV[Lys(Me3)]KPHRYRPGT (peptide, UniProt P84243 28-46, looked up) [histone H3.3K36me3 peptide (residues 27–45 of H3.3)] | 37 µM | 3900 µM | – | –

More lines, main results first:

Row | Kd [3] | Kd [4] | Molecule | Kd [1] | Kd [2]
3 | 480 µM | 1800 µM | KSAPSTGGV[Lys(Me3)]KPHR[pY]RPGT (peptide, UniProt P84243 28-46, looked up) [histone H3.3K36me3Y41ph peptide (residues 27–45 of H3.3)] | – | –
4 | 260 µM | 2300 µM | KSAP[pS]TGGV[Lys(Me3)]KPHRYRPGT (peptide, UniProt P84243 28-46, looked up) [histone H3.3S31phK36me3 peptide (residues 27–45 of H3.3)] | – | –
